Our source for the Kd values is PMC10139940.

pKd: −log10 of the molar value.

This test addresses Active site-blocked human EGR-bound FIXa (human) (UniProt P00740). Kind of test: SPR.
Sequence of UniProt P00740 (P00740 47-191, chain 1 of 2): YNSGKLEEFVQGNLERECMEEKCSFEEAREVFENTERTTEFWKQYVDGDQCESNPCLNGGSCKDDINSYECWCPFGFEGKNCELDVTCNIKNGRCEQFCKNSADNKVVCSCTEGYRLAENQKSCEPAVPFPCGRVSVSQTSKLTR
Sequence of UniProt P00740 (P00740 227-461, chain 2 of 2): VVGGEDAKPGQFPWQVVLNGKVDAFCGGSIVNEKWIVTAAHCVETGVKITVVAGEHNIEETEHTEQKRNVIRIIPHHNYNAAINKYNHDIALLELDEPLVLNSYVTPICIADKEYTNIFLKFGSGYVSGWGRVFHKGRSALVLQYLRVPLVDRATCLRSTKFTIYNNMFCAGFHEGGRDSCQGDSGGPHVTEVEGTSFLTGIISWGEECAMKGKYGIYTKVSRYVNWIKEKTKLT
Substance “B domain-deleted FVIII double mutant K1813A/K1818A (natural protein)” had a pKd of 8.33.

As for “B domain-deleted FVIII mutant K1813A (natural protein)”, the pKd was 8.41. Then “B domain-deleted FVIII mutant K1818A (natural protein)”, with 8.29; and “B domain-deleted WT-FVIII lacking Q744-S1637 (natural protein)”, with 8.20.
